# T1: GAD protein alone (GAL4 activation domain) (UniProt P04386 768-881, limits assumed)
# T1 construct: domain: GAD; Negative control of the immunoprecipitation assay
# T1 sequence (looked up): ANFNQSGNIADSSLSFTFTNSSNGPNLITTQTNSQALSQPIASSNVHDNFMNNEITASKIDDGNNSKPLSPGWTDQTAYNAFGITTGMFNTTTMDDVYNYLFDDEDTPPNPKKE
# T2: POTH1 (Solanum tuberosum)
# T2 chain: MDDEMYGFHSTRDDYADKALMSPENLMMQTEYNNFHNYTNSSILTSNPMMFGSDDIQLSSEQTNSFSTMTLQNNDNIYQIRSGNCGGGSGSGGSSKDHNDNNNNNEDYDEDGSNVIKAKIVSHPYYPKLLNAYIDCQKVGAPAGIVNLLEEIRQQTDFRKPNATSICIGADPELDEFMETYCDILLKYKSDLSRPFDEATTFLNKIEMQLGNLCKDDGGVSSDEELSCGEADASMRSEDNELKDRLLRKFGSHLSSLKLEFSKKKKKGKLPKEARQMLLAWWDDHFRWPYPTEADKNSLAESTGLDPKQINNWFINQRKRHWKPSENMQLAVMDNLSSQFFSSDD
# T3: StBEL-05 (Solanum tuberosum)
# T3 chain: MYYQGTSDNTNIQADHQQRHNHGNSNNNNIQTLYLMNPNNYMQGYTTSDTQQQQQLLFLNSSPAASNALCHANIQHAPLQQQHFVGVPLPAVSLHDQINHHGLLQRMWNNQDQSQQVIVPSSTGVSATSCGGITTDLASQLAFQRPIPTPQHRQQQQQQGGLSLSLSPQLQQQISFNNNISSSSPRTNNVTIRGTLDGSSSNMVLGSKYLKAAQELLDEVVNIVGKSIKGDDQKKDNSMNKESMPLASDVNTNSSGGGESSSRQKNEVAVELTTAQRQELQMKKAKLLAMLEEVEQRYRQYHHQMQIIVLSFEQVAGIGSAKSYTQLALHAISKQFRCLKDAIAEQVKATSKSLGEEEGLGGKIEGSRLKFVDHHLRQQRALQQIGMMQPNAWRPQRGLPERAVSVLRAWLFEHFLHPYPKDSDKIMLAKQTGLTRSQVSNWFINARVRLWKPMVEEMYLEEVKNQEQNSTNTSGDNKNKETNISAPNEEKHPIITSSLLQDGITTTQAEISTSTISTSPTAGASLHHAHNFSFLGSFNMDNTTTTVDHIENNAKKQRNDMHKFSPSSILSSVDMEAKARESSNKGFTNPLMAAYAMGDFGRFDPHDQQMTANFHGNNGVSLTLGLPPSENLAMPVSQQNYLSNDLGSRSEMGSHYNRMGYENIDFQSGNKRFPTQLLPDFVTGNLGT
# T4: StBEL-05/POTH1 heterodimer (Solanum tuberosum)
# T4 chain 1: T3 chain
# T4 chain 2: T2 chain
# T5: GAD:POTH1 fusion protein (full-length POTH1 fused to the GAL4 activation domain) (Solanum tuberosum, 35S-methionine labelled (in vitro translation))
# T5 construct: In vitro transcribed/translated bait of the immunoprecipitation assay; no 35S label there; also called POTH1:GAD
# T5 chain: T2 chain
# B1: StBEL-05 protein synthesized in vitro from pGEM11Z (other)
# chain: T3 chain
# modifications: 35S-methionine labelled (in vitro translation)
# notes: BEL cDNA cloned into pGEM11Z under the T7 promoter; also called p11Z-5
# B2: P1 binding site oligo (dsDNA)
# DNA 1: TTGACTTGAC
# DNA 2: GTCAAGTCAA
# B3: pBHD9 construct (first 114 aa of POTH1) cloned into the pGAD vector (GAL4 activation domain fusion) (other, not shown: large carriers)
# chain: MDDEMYGFHSTRDDYADKALMSPENLMMQTEYNNFHNYTNSSILTSNPMMFGSDDIQLSSEQTNSFSTMTLQNNDNIYQIRSGNCGGGSGSGGSSKDHNDNNNNNEDYDEDGSN
# notes: also called pBDH9 construct in pGAD
# B4: pBHD-9: POTH1 construct: first amino-terminal 114 aa, no KNOX domain sequence; transcriptional activator alone (protein)
# chain: MKLLSSIEQACDICRLKKLKCSKEKPKCAKCLKNNWECRYSPKTKRSPLTRAHLTEVESRLERLEQLFLLIFPREDLDMILKMDSLQDIKALLTGLFVQDNVNKDAVTDRLASVETDMPLTLRQHRISATSSSEESSNKGQRQLTVSMDDEMYGFHSTRDDYADKALMSPENLMMQTEYNNFHNYTNSSILTSNPMMFGSDDIQLSSEQTNSFSTMTLQNNDNIYQIRSGNCGGGSGSGGSSKDHNDNNNNNEDYDEDGSN
# B5: StBEL-13 protein synthesized in vitro from pGEM11Z (other)
# chain: MVMGGGASSQQLGYAKNHTPNVAESMQLFLMNPQPRSPSPSPPNSTSSTLHMLLPNPSSTSTLQGFPNPAEGSFGQFITWGNGGASAATATHHLNAQNEIGGVNVVESQGLSLSLSSSLQHKAEELQMSGEAGGMMFFNQGGSSTSGQYRYKNLNMGGSGVSPNIHQVHVGYGSSLGVVNVLRNSKYAKAAQELLEEFCSVGRGKLKKTNNKAAANNPNTNPSGANNEASSKDVPTLSAADRIEHQRRKVKLLSMVDEVDRRYNHYCEQMQMVVNSFDLVMGFGTAVPYTALAQKAMSRHFRCLKDAIGAQLKQSCELLGEKDAGNSGLTKGETPRLKMLEQSLRQQRAFHQMGMMEQEAWRPQRGLPERSVNILRAWLFEHFLHPYPSDADKHLLARQTGLSRNQVSNWFINARVRLWKPMVEDMYQQEAKDEDGDGDEKSQSQNSGNNIIAQTPTPNSLTNTSSTNMTTTTAPTTTTALAAAETGTAATPITVTSSKRSQINATDSDPSLVAINSFSENQATFPTNIHDPDDCRRGNLSGDDGTTTHDHMGSTMIRFGTTAGDVSLTLGLRHAGNLPENTHFFG
# modifications: 35S-methionine labelled (in vitro translation)
# notes: BEL cDNA cloned into pGEM11Z under the T7 promoter; also called p11Z-13
# B6: StBEL-30 protein synthesized in vitro from pGEM11Z (other)
# chain: MATYFPSPNNQRDADQTFQYFRQSLPESYSEASNAPENMMVFMNYSSSGAYSDMLTGTSQQQHNCIDIPSIGATPFNTSQQEILSNLGGSQMGIQDFSSWRDSRNEMLADNVFQVAQNVQGQGLSLSLGSNIPSGIGISHVQSQNPNQGGGFNMSFGDGDNSQPKEQRNADYFPPDNPGRDLDAMKGYNSPYGTSSIARTIPSSKYLKAAQYLLDEVVSVRKAIKEQNSKKELTKDSRESDVDSKNISSDTPANGGSNPHESKNNQSELSPTEKQEVQNKLAKLLSMLDEIDRRYRQYYHQMQIVVSSFDVVAGEGAAKPYTALALQTISRHFRCLRDAICDQIRASRRSLGEQDASENSKAIGISRLRFVDHHIRQQRALQQLGMMQQHAWRPQRGLPESSVSVLRAWLFEHFLHPYPKDSDKIMLARQTGLTRSQVSNWFINARVRLWKPMVEEMYKEEAGDAKIDSNSSSDVAPRLATKDSKVEERGELHQNAASEFEQYNSGQILESKSNHEADVEMEGASNAETQSQSGMENQTGEPLPAMDNCTLFQDAFVQSNDRFSEFGSFGSGNVLPNGVSLTLGLQQGEGSNLPMSIETHVSYVPLRADDMYSTAPTTMVPETAEFNCLDSGNRQQPFWLLPSAT
# modifications: 35S-methionine labelled (in vitro translation)
# notes: BEL cDNA cloned into pGEM11Z under the T7 promoter; also called p11Z-30
# Key:
# [1] = target: T6, pBHD9, first amino-terminal 114 aa of POTH1 in pBridge (GAL4 DNA-binding domain fusion) (Solanum tuberosum); assay: in vitro binding protocol (immunoprecipitation of in vitro translated proteins)
# T6 construct: also called pBDH9
# [2] = target: T1, GAD protein alone (GAL4 activation …); assay: immunoprecipitation of in vitro translated 35S-labelled proteins with anti-GAD antibodies
# Description: (§1) In vitro binding experiments were performed as described by Ni et al., "PIF3, a Phytochrome-Interacting Factor Necessary for Normal Photoinduced Signal Transduction, is a Novel Basic Helix-Loop-Helix Protein," *Cell* 95:657-667 (1998), which is hereby incorporated by reference in its entirety. The full-length sequence for POTH1 was cloned into a pET17b/GAD fusion cassette and transcribed under the control of the T7 promoter. The BEL cDNAs were cloned into pGEM11Z vectors and were transcribed under the control of the T7 promoter. ^35S-methionine labeled bait and prey proteins were synthesized using the TnT in vitro transcription-translation kit (Promega) according to the manufacturer's protocols. Each 50 µl TnT reaction contained 2.0 µg of template plasmid DNA and […] (20 µCi) of labeled ^35S-methionine. The POTH1:GAD/BEL complex was immunoprecipitated with anti-GAD antibodies (Santa Cruz Biotechnology, CA). The proteins from the pellet (one-half the fraction) and for the prey (one-fourth of the reaction volume) were resolved on a 10% SDS-PAGE gel and visualized by autoradiography.
# [3] = target: T2, POTH1; assay: EMSA; settings: tags: GST fusion from pGEX-5X-2, GST cleaved by Factor Xa
# [4] = target: T3, StBEL-05; assay: EMSA; settings: tags: GST fusion from pGEX-5X-2, GST cleaved by Factor Xa
# [5] = target: T4, StBEL-05/POTH1 heterodimer; assay: EMSA; deduced consensus TGA(C/G)(T/A)TGAC; settings: tags: GST cleaved by Factor Xa
# [6] = target: T7, StBEL-05 in pBridge (GAL4 DNA-binding domain fusion) (Solanum tuberosum); assay: yeast two-hybrid, reciprocal orientation
# T7 construct: Range derived as for m2
# [7] = tested on: StBEL-05; assay: Yeast two-hybrid interaction of POTH1 deletion constructs with StBEL-05; format: cell-based, potato; settings: yeast strain AH109
# Source text: The Matchmaker two-hybrid system (Clontech, CA) was used for the yeast two-hybrid screen. Yeast transformation and plasmid rescue into DH5-a E. coli cells were according to the manufacturer's instructions. Full-length POTH1 was cloned into the pBridge (Clontech, CA) vector and used as bait to screen the potato (S. tuberosum ‘Desireé’) stolon cDNA library in pAD-GAL4-2.1 (Stratagene, Calif.). Positive interactions were confirmed by cotransforming yeast strain AH109 with each purified pAD plasmid and pBridge: POTH1 and plating on -leucine/-tryptophan (transformation control) and -leucine/-tryptophan/-histidine/-adenine (selection) nutrient medium. Induction of the AH109 reporter gene, lacZ, was measured with a yeast β-galactosidase assay kit (Pierce Chemicals). β-galactosidase activity (FIG. 9B) was determined from a known density of yeast cells and calculated as 1000×OD420/time of color reaction (minutes)×volume of yeast culture (ml)×OD600.
# The StBEL-05 deletion constructs were amplified by PCR, then cloned into the vector, pGAD, in-frame with the GAL4 activation domain. POTH1 deletion constructs were amplified by PCR, and cloned into pBridge (Clontech) in-frame with the GAL4 binding domain. Sequencing of selected cDNAs and constructs was performed at the Iowa State University DNA Facility. […]
# [8] = target: T5, GAD:POTH1 fusion protein (full-length …); assay: immunoprecipitation of in vitro transcribed/translated proteins
# Description: as §1
# [9] = target: T5, GAD:POTH1 fusion protein (full-length …); assay: co-immunoprecipitation of in vitro translated 35S-labelled proteins with anti-GAD antibodies, SDS-PAGE and autoradiography
# Description: as §1
molecule,measurement,setting,value
B1,binding result,[1],no binding
same,binding result,[2],no binding
B2,binding result,[3],binds
same,binding result,[4],binds
same,binding result,[5],binds
B3,binding result,[6],no binding
B4,interaction with StBEL-05,[7],Interaction with StBEL-05 was observed
B5,binding result,[8],binds
same,binding result,[2],no binding
B6,binding result,[2],no binding
same,binding result,[9],binds

# — patent US7579150B1, “Mobile RNA acts as a signal to regulate plant growth and development” (Iowa State University Research Foundation, Inc., priority 2004, dated 2009)
